{
  "source": "paper doi:10.64898/2025.12.29.696898",
  "biological_target": "GFP-EBP2 (human) (UniProt Q99848)",
  "sequence (Q99848 whole entry)": "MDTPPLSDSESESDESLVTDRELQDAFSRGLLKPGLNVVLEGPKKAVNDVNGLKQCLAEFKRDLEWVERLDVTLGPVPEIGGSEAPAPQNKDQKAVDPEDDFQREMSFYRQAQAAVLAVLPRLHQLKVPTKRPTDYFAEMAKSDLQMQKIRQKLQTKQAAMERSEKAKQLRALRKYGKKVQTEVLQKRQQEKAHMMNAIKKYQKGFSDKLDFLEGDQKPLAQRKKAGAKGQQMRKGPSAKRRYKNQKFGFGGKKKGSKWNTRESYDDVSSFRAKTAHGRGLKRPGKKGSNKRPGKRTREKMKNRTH",
  "assay": "FRET or BRET",
  "data": [
    {"substance": "EBNA-1-DsRed (from UniProt P03211 1-641) (natural protein)", "values": [
      {"measurement": "mean fluorescence intensity at 588 nm resulting from FRET", "result": 167},
      {"measurement": "mean ratio of fluorescence intensity (FI 588 nm/ FI 588 nm + FI 513 nm)", "result": 0.4}
    ]}
  ]
}
